Data as given in patent publication US20180185467A1 (Harvard, published 2018).

Assays:
endogenous 14-3-3ε = endogenous 14-3-3ε (UniProt P62258)
[1] = biological target: T1, GST-NS3 of HCV (strain Con1) (Hepatitis C virus, strain Con1, UniProt Q9WMX2 1027-1657); experiment: GST pull-down in 293T cells, immunoblot with anti-14-3-3ε
T1 construct: domain: NS3; also called HCV NS3; NS3 of Hepatitis C virus

endogenous RIG-I = biological target: T2, endogenous RIG-I (human, UniProt O95786 1-925); experiment: Co-IP with anti-RIG-I from SeV-infected cells, immunoblot with anti-14-3-3ε
T2 construct: also called retinoic acid-inducible gene-I
T2 sequence: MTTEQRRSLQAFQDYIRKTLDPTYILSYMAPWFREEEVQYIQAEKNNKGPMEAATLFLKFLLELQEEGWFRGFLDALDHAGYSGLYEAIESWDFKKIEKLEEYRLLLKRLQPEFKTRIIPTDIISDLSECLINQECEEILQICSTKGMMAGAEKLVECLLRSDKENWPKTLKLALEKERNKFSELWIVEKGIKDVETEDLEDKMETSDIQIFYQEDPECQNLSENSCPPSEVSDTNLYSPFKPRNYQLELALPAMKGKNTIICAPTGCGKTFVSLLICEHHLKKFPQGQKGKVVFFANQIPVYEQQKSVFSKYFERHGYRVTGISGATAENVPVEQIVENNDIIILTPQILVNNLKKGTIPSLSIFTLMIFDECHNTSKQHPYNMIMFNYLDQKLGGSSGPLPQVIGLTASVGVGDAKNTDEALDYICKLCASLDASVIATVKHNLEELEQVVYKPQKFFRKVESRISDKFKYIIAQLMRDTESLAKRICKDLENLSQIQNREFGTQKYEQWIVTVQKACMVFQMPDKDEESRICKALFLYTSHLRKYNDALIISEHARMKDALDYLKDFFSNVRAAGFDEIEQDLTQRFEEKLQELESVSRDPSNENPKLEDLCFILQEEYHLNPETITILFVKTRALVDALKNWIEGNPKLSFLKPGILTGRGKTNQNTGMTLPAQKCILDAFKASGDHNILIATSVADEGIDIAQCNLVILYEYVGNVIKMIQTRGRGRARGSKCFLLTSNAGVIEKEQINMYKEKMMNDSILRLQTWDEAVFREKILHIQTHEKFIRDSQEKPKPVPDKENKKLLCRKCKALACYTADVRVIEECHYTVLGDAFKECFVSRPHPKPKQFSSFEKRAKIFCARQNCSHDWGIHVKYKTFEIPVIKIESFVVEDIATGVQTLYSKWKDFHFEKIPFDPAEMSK

[2] = biological target: T3, FLAG-NS5-MTase (NS5 methyltransferase domain, aa 1-319) (dengue virus serotype 2, strain NGC, UniProt P14340 2492-2810); experiment: FLAG affinity purification from HEK293T cells and mass spectrometry
T3 construct: domain: NS5 methyltransferase (aa 1-319); also called pEF-BOS-FLAG-NS5-MTase; not shown: FLAG tag

RIG-I-FLAG = biological target: T4, RIG-I-FLAG (UniProt O95786 1-925); experiment: in vitro binding assay on anti-FLAG beads, immunoblot
T4 construct: also called purified RIG-I-FLAG
T4 sequence: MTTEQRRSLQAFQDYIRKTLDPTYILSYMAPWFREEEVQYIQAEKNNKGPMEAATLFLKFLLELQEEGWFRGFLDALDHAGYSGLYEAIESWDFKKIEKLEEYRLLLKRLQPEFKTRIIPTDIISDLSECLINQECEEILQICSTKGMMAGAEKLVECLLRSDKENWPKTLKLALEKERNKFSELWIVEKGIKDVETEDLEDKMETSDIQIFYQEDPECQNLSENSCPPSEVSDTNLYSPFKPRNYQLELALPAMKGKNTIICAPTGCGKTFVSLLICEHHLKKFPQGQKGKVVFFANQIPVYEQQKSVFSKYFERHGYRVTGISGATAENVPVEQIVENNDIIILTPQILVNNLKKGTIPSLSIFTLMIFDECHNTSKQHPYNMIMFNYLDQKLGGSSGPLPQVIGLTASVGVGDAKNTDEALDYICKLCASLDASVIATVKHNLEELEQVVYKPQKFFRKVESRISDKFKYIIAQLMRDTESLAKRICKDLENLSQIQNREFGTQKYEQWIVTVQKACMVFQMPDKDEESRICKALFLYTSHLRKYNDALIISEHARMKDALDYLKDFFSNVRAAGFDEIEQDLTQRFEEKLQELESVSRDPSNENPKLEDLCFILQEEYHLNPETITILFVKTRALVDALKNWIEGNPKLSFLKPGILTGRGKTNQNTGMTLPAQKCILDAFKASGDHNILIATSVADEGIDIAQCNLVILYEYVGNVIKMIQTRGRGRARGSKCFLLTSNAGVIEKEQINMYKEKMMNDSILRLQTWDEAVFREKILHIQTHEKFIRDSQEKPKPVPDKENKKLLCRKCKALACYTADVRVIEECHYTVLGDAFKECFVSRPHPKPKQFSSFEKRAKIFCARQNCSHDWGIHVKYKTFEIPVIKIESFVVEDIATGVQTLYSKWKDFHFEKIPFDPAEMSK

T1 sequence (Q9WMX2 1027-1657): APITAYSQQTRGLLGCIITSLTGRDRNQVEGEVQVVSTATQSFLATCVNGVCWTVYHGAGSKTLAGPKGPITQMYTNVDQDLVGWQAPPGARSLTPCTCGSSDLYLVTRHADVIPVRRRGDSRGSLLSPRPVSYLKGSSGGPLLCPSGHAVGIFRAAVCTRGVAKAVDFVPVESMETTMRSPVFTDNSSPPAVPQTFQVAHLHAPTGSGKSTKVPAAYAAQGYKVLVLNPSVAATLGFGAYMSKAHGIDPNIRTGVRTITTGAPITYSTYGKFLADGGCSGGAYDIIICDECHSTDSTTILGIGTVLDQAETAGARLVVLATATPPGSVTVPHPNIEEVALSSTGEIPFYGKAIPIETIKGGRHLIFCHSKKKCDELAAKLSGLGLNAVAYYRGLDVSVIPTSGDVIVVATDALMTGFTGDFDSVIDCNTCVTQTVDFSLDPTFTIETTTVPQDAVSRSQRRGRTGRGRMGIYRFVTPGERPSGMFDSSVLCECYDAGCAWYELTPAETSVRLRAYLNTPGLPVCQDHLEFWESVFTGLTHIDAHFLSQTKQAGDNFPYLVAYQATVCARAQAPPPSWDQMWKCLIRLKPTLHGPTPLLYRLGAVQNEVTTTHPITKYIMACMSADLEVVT

NS3 of DV2 NGC in infected Huh7 cells
translocation of RIG-I to the MAVS-containing mitochondrial fraction (fractionation, immunoblot) (endogenous 14-3-3ε): RIG-I failed to translocate to the MAVS-containing mitochondrial fraction during DV infection

B1: endogenous 14-3-3ε (other)
chain: MDDREDLVYQAKLAEQAERYDEMVESMKKVAGMDVELTVEERNLLSVAYKNVIGARRASWRIISSIEQKEENKGGEDKLKMIREYRQMVETELKLICCDILDVLDKHLIPAANTGESKVFYYKMKGDYHRYLAEFATGNDRKEAAENSLVAYKAASDIAMTELPPTHPIRLGLALNFSVFYYEILNSPDRACRLAKAAFDDAIAELDTLSEESYKDSTLIMQLLRDNLTLWTSDMQGDGEEQNKEALQDVEDENQ
binding result [1]: no binding | binding result (endogenous RIG-I): binds | binding result [2]: no binding

B2: bacterially-purified recombinant human 14-3-3ε protein (NP_006752.1) (other)
chain: MDDREDLVYQAKLAEQAERYDEMVESMKKVAGMDVELTVEERNLLSVAYKNVIGARRASWRIISSIEQKEENKGGEDKLKMIREYRQMVETELKLICCDILDVLDKHLIPAANTGESKVFYYKMKGDYHRYLAEFATGNDRKEAAENSLVAYKAASDIAMTELPPTHPIRLGLALNFSVFYYEILNSPDRACRLAKAAFDDAIAELDTLSEESYKDSTLIMQLLRDNLTLWTSDMQGDGEEQNKEALQDVEDENQ
notes: also called recombinant (r) 14-3-3ε; r14-3-3ε
binding result (RIG-I-FLAG): binds
